How the values were obtained:
Test in all cases: indirect ELISA, VLP coated at 2 μg/mL, antibody at 10 ng/mL
HPV39 VLP = molecular target: T1, HPV39 VLP (Human papillomavirus type 39, UniProt P24838 1-505)
T1 construct: also called HPV39完整VLP蛋白
T1 sequence: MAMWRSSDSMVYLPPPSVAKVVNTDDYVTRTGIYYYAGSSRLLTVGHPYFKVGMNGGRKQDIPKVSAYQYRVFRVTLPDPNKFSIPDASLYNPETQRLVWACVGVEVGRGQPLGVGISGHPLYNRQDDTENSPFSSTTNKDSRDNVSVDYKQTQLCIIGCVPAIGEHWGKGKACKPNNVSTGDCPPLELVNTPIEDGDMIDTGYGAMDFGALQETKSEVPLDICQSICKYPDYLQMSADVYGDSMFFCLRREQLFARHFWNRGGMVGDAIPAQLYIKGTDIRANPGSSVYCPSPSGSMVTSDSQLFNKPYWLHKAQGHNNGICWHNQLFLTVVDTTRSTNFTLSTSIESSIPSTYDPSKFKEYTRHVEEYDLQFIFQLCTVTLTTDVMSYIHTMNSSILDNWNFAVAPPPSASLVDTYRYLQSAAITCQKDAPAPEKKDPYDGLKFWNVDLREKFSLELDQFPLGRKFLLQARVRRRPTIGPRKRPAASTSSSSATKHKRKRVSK

HPV33 VLP = molecular target: T2, HPV33 VLP (Human papillomavirus type 33, UniProt P06416 1-499)
T2 construct: also called HPV33完整VLP蛋白
T2 sequence: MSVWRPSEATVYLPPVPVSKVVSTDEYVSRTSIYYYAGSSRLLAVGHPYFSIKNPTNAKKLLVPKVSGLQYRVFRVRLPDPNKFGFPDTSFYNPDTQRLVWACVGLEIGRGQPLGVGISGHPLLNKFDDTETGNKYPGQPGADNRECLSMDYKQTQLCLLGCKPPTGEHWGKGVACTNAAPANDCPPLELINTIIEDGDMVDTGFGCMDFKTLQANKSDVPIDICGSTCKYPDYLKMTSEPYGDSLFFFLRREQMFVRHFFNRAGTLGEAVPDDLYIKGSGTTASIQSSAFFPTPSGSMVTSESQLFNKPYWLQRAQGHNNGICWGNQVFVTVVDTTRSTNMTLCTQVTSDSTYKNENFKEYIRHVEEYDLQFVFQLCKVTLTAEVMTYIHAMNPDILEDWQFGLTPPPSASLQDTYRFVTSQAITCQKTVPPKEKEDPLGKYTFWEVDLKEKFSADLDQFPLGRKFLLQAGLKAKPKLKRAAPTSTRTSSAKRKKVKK

HPV11 VLP = molecular target: T3, HPV11 VLP (Human papillomavirus type 11, UniProt P04012 1-501)
T3 construct: also called HPV11完整VLP蛋白
T3 sequence: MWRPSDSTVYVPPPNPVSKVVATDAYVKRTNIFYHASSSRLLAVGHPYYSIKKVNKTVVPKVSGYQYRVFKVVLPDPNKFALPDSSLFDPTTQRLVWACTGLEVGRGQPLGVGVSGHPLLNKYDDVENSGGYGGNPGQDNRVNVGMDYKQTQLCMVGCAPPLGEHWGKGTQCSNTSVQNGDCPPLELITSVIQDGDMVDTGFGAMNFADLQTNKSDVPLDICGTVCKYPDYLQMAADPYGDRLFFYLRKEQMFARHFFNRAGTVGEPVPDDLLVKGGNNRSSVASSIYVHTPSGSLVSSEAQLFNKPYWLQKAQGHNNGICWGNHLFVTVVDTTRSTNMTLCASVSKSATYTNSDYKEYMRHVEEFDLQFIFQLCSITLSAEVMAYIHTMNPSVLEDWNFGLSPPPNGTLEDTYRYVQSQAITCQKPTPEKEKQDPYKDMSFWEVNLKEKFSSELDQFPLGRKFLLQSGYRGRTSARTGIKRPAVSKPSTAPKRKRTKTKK

HPV31 VLP = molecular target: T4, HPV31 VLP (Human papillomavirus type 31, UniProt P17388 1-504)
T4 construct: also called HPV31完整VLP蛋白
T4 sequence: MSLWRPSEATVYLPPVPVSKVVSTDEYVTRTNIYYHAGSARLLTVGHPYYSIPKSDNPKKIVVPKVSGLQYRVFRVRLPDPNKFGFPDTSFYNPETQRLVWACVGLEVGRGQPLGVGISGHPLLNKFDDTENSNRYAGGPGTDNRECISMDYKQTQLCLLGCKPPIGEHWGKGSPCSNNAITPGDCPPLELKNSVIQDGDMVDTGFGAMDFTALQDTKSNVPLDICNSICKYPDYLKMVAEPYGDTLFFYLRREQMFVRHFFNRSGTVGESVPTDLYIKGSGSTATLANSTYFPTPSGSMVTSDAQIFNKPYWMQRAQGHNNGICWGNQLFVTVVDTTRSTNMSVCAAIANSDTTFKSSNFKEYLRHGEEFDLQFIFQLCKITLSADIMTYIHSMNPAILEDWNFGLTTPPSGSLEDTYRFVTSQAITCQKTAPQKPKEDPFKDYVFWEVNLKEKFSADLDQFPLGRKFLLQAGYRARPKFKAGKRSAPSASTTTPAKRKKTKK

HPV58 VLP = molecular target: T5, HPV58 VLP (Human papillomavirus type 58, UniProt P26535 27-524)
T5 construct: also called HPV58完整VLP蛋白
T5 sequence: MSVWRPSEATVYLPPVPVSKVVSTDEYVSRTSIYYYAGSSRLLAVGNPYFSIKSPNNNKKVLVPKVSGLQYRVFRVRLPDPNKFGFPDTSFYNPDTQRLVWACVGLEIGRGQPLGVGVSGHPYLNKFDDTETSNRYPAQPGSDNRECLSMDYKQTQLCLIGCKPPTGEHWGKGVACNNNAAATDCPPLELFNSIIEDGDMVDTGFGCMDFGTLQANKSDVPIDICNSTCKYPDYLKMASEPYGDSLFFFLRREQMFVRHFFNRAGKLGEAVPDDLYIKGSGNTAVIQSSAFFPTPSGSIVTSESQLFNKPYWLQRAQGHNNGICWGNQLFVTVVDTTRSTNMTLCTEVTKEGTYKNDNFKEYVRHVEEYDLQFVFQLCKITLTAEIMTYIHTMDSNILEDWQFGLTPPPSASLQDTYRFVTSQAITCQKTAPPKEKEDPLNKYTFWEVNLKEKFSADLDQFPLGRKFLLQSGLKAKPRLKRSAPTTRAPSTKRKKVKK

B1: HPV 16 R001 (antibody, V domains shown)
VH: QSVKESEGRLVTPGTPLTLTCTASGFTMSRYHMTWVRQAPGKGLEWIGIIYARNSDTYYANWAKGRFTISKTSTTVDLKITSPTIEDTATYFCARVDSDSSGAFDRLDLWGQGTLVTVSS
VL: DPMLTQTAASVEVAVGGTVTIKCQASQSIGGYLSWYQQKPGQRPKLLIYRASTLASGVPSRFKGSGSGTEYTLTFSGVECADAAAYYCQQGYTSSDINNAFGGGTEVVVK
notes: An HRP-labelled form served as detection antibody in the sandwich ELISA; also called HPV16.001; 单克隆抗体HPV 16 R001
Which OD450-blank (HPV39 VLP) does the source give for B1 here?
The OD450-blank was 0.004 OD450.

And the OD450-blank (HPV33 VLP)?
Its OD450-blank is 0.001 OD450.

And the OD450-blank (HPV11 VLP)?
Its OD450-blank is 0.001 OD450.

What about the OD450-blank (HPV31 VLP) of the same binder?
Its OD450-blank is 0.002 OD450.

What about the OD450-blank (HPV58 VLP) of the same binder?
Its OD450-blank is 0.003 OD450.

From patent CN112125972A (SINOCELLTECH LTD, dated 2020)
